Results taken from the domain aggregation screens of Martell et al. (2025).

Experiment: soluble fraction after stress (log2 fold change); higher = more stays soluble; pooled small domains, quantitative proteomics
Conditions: stress: 50 degC
Method in brief: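 Each library was heated to 50°C as a stress step. The libraries, made up of small protein domains, were pooled and analysed at high throughput by quantitative proteomics. The reported value is the base-two logarithm of the fold change in each protein's soluble amount after stress, taken as a measure of aggregation propensity. The higher the value, the more protein stays in solution.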

Question: With “HMELNEIEFENLKESIIIHLEKESLSPHELVKHIQTIHPDKVTAVIQWMLENGFIKTDAGGQLTLVSK” as the sequence, how does the “soluble fraction (log2)” value read?
Answer: 0.135

Question: With “HMEENIKKDIEVPNIEGLTIDEAKKRLKEVNLNISIEDMEEKEGTEIITQQLPKAGIKVKEGVAIIAY” as the sequence, how does the “soluble fraction (log2)” value read?
Answer: 0.0824

Question: Which “soluble fraction (log2)” value does the source give for “HMNTPLYLKIREQIFDALRSGRWAANDPLPSETKLASEFEVSQGTIRKAIDDLVAQNILYRHQGRGTFIRR” here?
Answer: -0.5

Question: For “HMLDVNLIFSRPGFSLSAAFTLHAGGITVLRGDSGSGKTTLADLLSGAIAPQKGRILSDGDIWFDAASGIN”, which “soluble fraction (log2)” value is on record?
Answer: 0.22

Question: For “HMDIKKHISATLKREMEKRGLNFMEFSTELGIPRTTLQGYLKGTSSPQADSLEELADKLGISPAELVSG”, which “soluble fraction (log2)” value is on record?
Answer: 0.15

Question: With “HMNAKVVAPIPGTVLSIDIKVGDVIKIGDRLLVLEAMKMENNIASEKSGTVTAVHVKVGQQVLQNELMIEL” as the sequence, how does the “soluble fraction (log2)” value read?
Answer: -1.39

Question: For “HMKKYFPPKSRFNPNKYLLKDWMALGLSEKQSQSILNFIQRGIYSNSALEKIYVMPEEVFTLIKDSTYYEE”, which “soluble fraction (log2)” value is on record?
Answer: -1.34

Question: Which “soluble fraction (log2)” value does the source give for “HMTVPAGIVLSSIRQDGDVLHIRGTAQSTERLNFFRNSFSASWGSPAQNGKRKADPVTGLVDFTISLK” here?
Answer: -0.677

Question: Which “soluble fraction (log2)” value does the source give for “HMDEFAGSAKPLADGAAPAGYDVKGNKDSMKYHEPGGRWYDATVAEVWFKTAADAEAAGFVKAGA” here?
Answer: 0.172

Question: For “HMSNIQLAANLQRLRKDHHFTQTQFSKKLNISRQAYSNYETGKRIPDLDIIIRIANIYHISLENLL”, which “soluble fraction (log2)” value is on record?
Answer: -0.389

Question: Which “soluble fraction (log2)” value does the source give for “HMNADKEALIAAAYRNSLIENFGTENVERYEERFNKWADKHDRQGMPMYPTIEKWMNEDNIA” here?
Answer: 0.111

Question: Which “soluble fraction (log2)” value does the source give for “HMKLHPRDQERTRAISARGERLYAVTVGDLRRRIGEMLEWFGRQIESQEPMRVAKAARRITDFFDQVEAFT” here?
Answer: -2.06

Question: For “HMDEFHLSERERQILNLLVLGHTYKHIASDLNIAYATVNKHVSNVYAKLRVQSASEAVALAIRKGL”, which “soluble fraction (log2)” value is on record?
Answer: -0.899

Question: Which “soluble fraction (log2)” value does the source give for “HMGADSFTGYTPIHKIDNPSDGINDGASYVVYFQKDGTDPTEFYKAVNANASTLAQLTSGTEYDLASSKKL” here?
Answer: 0.0305

Question: Which “soluble fraction (log2)” value does the source give for “HMSKLSVSSLSSPEVQNQLKAAGIDVNSRQYQVVMKDMMGALDGRAGYTTVSAIKNRMRQYNADGDY” here?
Answer: 0.474

Question: Which “soluble fraction (log2)” value does the source give for “HMRRGKLGMASRLEQIPGIGPKKRKALLKAFGNSIDAIKSAPVEDLMKVKGINLVLAESIKEL” here?
Answer: 0.0167

Question: Which “soluble fraction (log2)” value does the source give for “HMVQVHEWTNKAGRTIKAKFVRGDAQSVTIFLGGRNFVLKIADLSEESQALARKLSAPPPPP” here?
Answer: -0.607

Question: For “HMDANLGEIFKVYEQEIGALTPFVREEMLDAIDHYPRDWILDAIRESAKSNARNWKYTLAILKRWKAEG”, which “soluble fraction (log2)” value is on record?
Answer: -0.312

Question: Which “soluble fraction (log2)” value does the source give for “HMKEPIYQTILSALILELNTNHFRKNDPFYSESELRKKYQVSSTTVVRVLNMLADQGYIYRIQGKGSFVSK” here?
Answer: -2.37

Question: With “HMKLLLSANISKLRKKYSMTQEQLAEALGVTFASVSKWERGVATPELKLIAEMADMFEVSIDALIGYEFRN” as the sequence, how does the “soluble fraction (log2)” value read?
Answer: -1.39

Question: Which “soluble fraction (log2)” value does the source give for “HMQARSQQTIQTLFKAAAQILDKEGEAGLSTNKVAAAAGFSIGTLYQYFPSKEVLIQAMAAR” here?
Answer: -0.0788

Question: With “HMALSVRNRMSDLLRMLGDGEFHRFENLFSLEEGRHGIVVTFLAMLELAKEQLVEISQGESLAPIYLKSLA” as the sequence, how does the “soluble fraction (log2)” value read?
Answer: -0.716

Question: For “HMLVLAENMDVIFTRRTLDDHVVVDYKTTIGEMVKNDEIKGENMDELISAVEKDGYELVSSTSGEIIFLND”, which “soluble fraction (log2)” value is on record?
Answer: -1.2

Question: Which “soluble fraction (log2)” value does the source give for “HMNTNDFTIGTRVRTTKKGNGSSDGTSNTARSGIEGTITRIIPEAKYPYLVSTTVPMGWYKKDALEK” here?
Answer: 0.0875

Question: With “HMNLTSNDAYSRILNAIITSELRPGDTVTEIQLAQKFGFGRTPVREAIMRLENEGFIVSAERKKRVYIL” as the sequence, how does the “soluble fraction (log2)” value read?
Answer: -2

Question: With “HMKEEVEILGGKATIYTNDYGVWQFRLWLTTDNKYVRKSLRTKVKDYAITEGEKLYIQIRSDIEKGIKYY” as the sequence, how does the “soluble fraction (log2)” value read?
Answer: -1.13

Question: Which “soluble fraction (log2)” value does the source give for “HMIKSIRELAEVITLWKNQGKTILIAEHRLSYLMDLADRVLYMKDGQIENDFSMADFRKIPPDEISRMGLR” here?
Answer: -0.126

Question: For “HMANMTAKQINMFGDKLSRDKDFQSYYIAKSGDSREQYAQDIKGKLLDPFYVNAWMPYLEKIGFVPS”, which “soluble fraction (log2)” value is on record?
Answer: 0.00797

Question: Which “soluble fraction (log2)” value does the source give for “HMSEVSEILTRARFFAGVKTDAELSTLLKIPYGTLIGWKTRKNIPESRIAQMALILGIRRDTLIPA” here?
Answer: -1.71

Question: Which “soluble fraction (log2)” value does the source give for “HMIDELNVGDIRFYLNRYGKEIQIEIIRIGDDGSVYARTMADNALFRVPEARLKNIGEKVPAEEVQRG” here?
Answer: -0.742

Question: With “HMKAEKEIEKIKFTIYNEFKRKQEENHFLPPWDGTKMLRQFVLGVVANNPKYQHVNTDILYRDLLLLYYQ” as the sequence, how does the “soluble fraction (log2)” value read?
Answer: -0.968

Question: For “HMSSFRDISGTVYVKASAANLRSEPNTSSLIVDTLYYGASLQRISTNDIWTKVKTGNGQIGFMDNSLFQT”, which “soluble fraction (log2)” value is on record?
Answer: -2.23

Question: With “HMGKNISEEDMLGYFKKIDLDYDAETKEVIAPTFRHDLFRLADLAEEVARFFGYDNIPTTLPSGEAT” as the sequence, how does the “soluble fraction (log2)” value read?
Answer: 0.0416

Question: With “HMDQTKYDAIITEAKKLTAEGQYKESEEKLATIPVSDLGKPHYSIVKETVEKLNNQNNEGLKRQEEVAVE” as the sequence, how does the “soluble fraction (log2)” value read?
Answer: -0.02

Question: For “HMGVYDLIYLGYGINVEKEELVDQNISIIRRYANIFDPNGDIKGSTNPTYASNTAVLFNEAKFIIDGYD”, which “soluble fraction (log2)” value is on record?
Answer: -3.65

Question: With “HMPVFYVTGNRVNFRAGPSTGDRVIGSLSQGAAVEVLGPTDDAWINIRDSDGRVGYMSAQFLSQ” as the sequence, how does the “soluble fraction (log2)” value read?
Answer: -0.069

Question: Which “soluble fraction (log2)” value does the source give for “HMSLLTPLEEARIVIEELIIPQKLTLDLLPQNSQIRKLQHEIINHYRLKGISIGDGKNRRVRIYS” here?
Answer: -0.133

Question: For “HMIMTTKVSGIMFDKFNPSAILNINGMDYLVRSGDIINGYKILSIGQETVTVQYGANVYKASVG”, which “soluble fraction (log2)” value is on record?
Answer: -2.26

Question: With “HMGAVGISQKVTSLETAVLGKNFAKDPLIDRVARLEQTVLPKQAEANASLSLPERVSKLLEKVPIAAG” as the sequence, how does the “soluble fraction (log2)” value read?
Answer: 0.223

Question: Which “soluble fraction (log2)” value does the source give for “HMTKAGVDAWTRGDYAAAVKEWQAQAAKGDADAIFNLGQAFKLGKGVPQDLIKAEQLFGQAAA” here?
Answer: 0.154

Question: Which “soluble fraction (log2)” value does the source give for “HMIDDPTAVILRLVSEKQVIRRDDVVKALSVTPQKAYRLLKTMTTGGLLTRSGARRTTVYGLPDARER” here?
Answer: -0.0945

Question: Which “soluble fraction (log2)” value does the source give for “HMDDVYMVPVKDIAINDLKQEFEKLGIPNIQNTIPDKDLNFFIVRKDDLALVNYAIEKTMER” here?
Answer: -0.0369

Question: For “HMRDANYFINPIHEWQKRYEALRASFVDRLPAQAVAQRFGYTITYIHLLRHQFKSGKIDFSEPVPEG”, which “soluble fraction (log2)” value is on record?
Answer: -4.61

Question: With “HMKALDTVLSEIPGLGPVRIKQLLKVFGSVDAIRKASLQDLQQIEGIGPKLAQTIYEYFHQP” as the sequence, how does the “soluble fraction (log2)” value read?
Answer: ≥ 0.62

Question: Which “soluble fraction (log2)” value does the source give for “HMSPTDKATVNVYALNVRTGPGTNYKVLGSVIKGTELQVLGSSGKWLKVKYGNREAYVAGWLVK” here?
Answer: -1.62

Question: For “HMSNEITVPDLSGMSLEELETILSDRSLSYEIIDSIYNSTAKKGTVSSQDPLPDAKVKSGRTIYITVVSKL”, which “soluble fraction (log2)” value is on record?
Answer: -1.5

Question: Which “soluble fraction (log2)” value does the source give for “HMGGELLSLRRIGTLTGISYPTLLRYVARYGEQIPQTGTGRSRRFPPAAVPVFQELRATRGRAPRATA” here?
Answer: -0.063

Question: Which “soluble fraction (log2)” value does the source give for “HMGSNENTIREYFDSLIASASKREIMDANPTMSQRTVERILQKLQAEGYVEKIGAARSTRYRRA” here?
Answer: -0.178

Question: With “HMNMKVGPVPANVVPANIKAHVSNNYSKYQIVQMMQNDKGYQVKLSNGTDLYYDKDGNILKTS” as the sequence, how does the “soluble fraction (log2)” value read?
Answer: 0.196

Question: For “HMVEDIVLTDAQIEFVKQQAKNGLSAFQISEMIWPEMSVKRFSKQHVAVLDFLREYEPAYVHDSE”, which “soluble fraction (log2)” value is on record?
Answer: 0.00709

Question: For “HMRKIEDVLRLHAQGMSTRRIALATGVGKTTVIEYLRRAAVAGLSWPLPEGLDEEALERRVFPPPP”, which “soluble fraction (log2)” value is on record?
Answer: -1.45

Question: Which “soluble fraction (log2)” value does the source give for “HMQADEENPKYPVITDGVIQLEVLESIDKTEEWLVERLAKDGYNNVSEIFIAEYENGNLSIVT” here?
Answer: 0.148

Question: With “HMSMSLQFLSRRIRLQREKRGLKQHDIAHALQISPQAVSKWERGENAPDIALLRPLAGLLGVSIDWLMGGD” as the sequence, how does the “soluble fraction (log2)” value read?
Answer: -2.15

Question: Which “soluble fraction (log2)” value does the source give for “HMANFGSILRNLRISRDITQSELAAKLGVSRSTVGMYETGAREPDFEAMEAIADTFNVDMDYLVGRSQ” here?
Answer: -0.28

Question: Which “soluble fraction (log2)” value does the source give for “HMDVSASEVGLTGRQTDVLSLMVKGRSNRDIAELLGLSEGTVKIHITAIFKALGVASRTQALVAAARLGLK” here?
Answer: -0.156
